Non-standard residues stand in square brackets, D forms with d. Residues, ends and D or L forms follow the SMILES beside them. No end group written: not given here. d2Nal = N[C@H](Cc1ccc2ccccc2c1)C(=O)O; Aib = CC(C)(N)C(=O)O
Assays:
VEGFR2 = VEGFR2 (Homo sapiens, UniProt P35968); assay: pull-down binding assay with endogenous VEGFR2 from HUVEC lysates; set-up: endogenous in cells; host or cells: HUVEC; conditions: HUVEC lysate, anti-VEGFR2 western blot
Text: Truncated mutants of KIF13B were expressed in BL21 (DE3) or Rosetta-gami and purified as previously described (Yamada, et al. (2014) J. Cell Sci. 127:4518-30; Yamada, et al. (2007) Biochemistry 46:10039-45).
Using recombinant proteins, the binding sites on KIF13B mediating the interaction with VEGFR2 were identified. KIF13B has a motor, forkhead-associated, membrane-associated guanylate kinase-binding stalk, 2 domains of unknown function (DUFs) (DUF3694), and a proline-rich and cytoskeleton-associated protein glycine-rich domain. The DUFs were identified from amino acid sequence similarity on the Pfam database. It has been previously shown that both domains of DUF3694 directly bind recombinant VEGFR2 in vitro (Yamada, et al. (2007) Biochemistry 46:10039-45). To define the specific peptide sequence inhibiting VEGFR2 trafficking, further analysis of the second DUF3694 domain (DUF2, residues 1112-1281 of KIF13B) was carried out. This was based on stability of this domain and a sequence distinct from binding sites for other cargoes of KIF13B (Horiguchi, et al. (2006) J. Cell Biol. 174:425-436; Hanada, et al. (2000) J. Biol. Chem. 275:28774-2878). DUF2 was divided into 3 parts, DUF2A (residues […]), DUF2B (residues 1168-1216), and DUF2C (residues 1217-1281) and each part was expressed as a recombinant protein in bacteria. VEGFR2 was abundantly expressed in HUVECs; thus, cell lysate from HUVECs was incubated with these recombinant proteins on beads, and VEGFR2 binding was determined using the anti-VEGFR2 antibody.
To identify the minimum binding site on VEGFR2, DUF2C was further truncated (DUF2C1-9) (FIG. 1). […] Stability of the C5 peptide was attributed to the 4-6 C-terminal residues. Accordingly, replacing these C-terminal residues with another a peptide, one or more post-translational modifications, one or more non-natural amino acid residues, a macromolecule such as PEG, or a combination thereof, is expected to stabilize the KAI peptide.
Initially, peptide interaction with VEGFR2 was confirmed using the pull-down assay.
To further define the KIF13B residues involved in binding to VEGFR2, truncations of the DUF2C5 peptide were tested for binding to VEGFR2 (Table 3) and compared to binding of DUF2C5 and peptides flanking this region (FIG. 1).

[1] = cited from earlier work
[2] = system: vWF positive endothelial cells in tumors; assay: delivery of DY633-labeled peptide to tumors in H460-tumor bearing SCID mice; type: in vivo, mouse; conditions: 10 mg/kg i.v. via tail vein, tumors dissected after 1 hour
Experimental: Delivery of the DUF2C5 peptide was tested using synthesized peptide covalently conjugated with DY633 fluorescent probe (Pierce). DY633-DUF2C5 (10 mg/kg body weight), DY633-CT23 or DY633 alone were injected intravenous (i.v.) via tail vein in H460-tumor bearing SCID mice. After 1 hour, tumors were dissected and flash frozen in OCT. Cryosections of tumors were co-stained with vWF to visualize endothelial cells in tumors.

HUVECs [3] = assay: VEGF-induced capillary network formation on […] in vitro; type: cell-based, human; conditions: truncated mutant expressed by lentivirus in HUVECs
Experimental: (§1) Collagen invasion assay was performed as previously described (Kang, et al. (2011) J. Biol. Chem. 286:42017-26). In vitro capillary network formation on […] (BD Biosciences, San Jose, Calif.) and scratch wound healing assay were performed as previously described (Humtsoe, et al. (2010) Mol. Cell Biol. 30:1593-1606). Fibrin gel sprouting assay was performed as described by Nakatsu & Hughes ((2008) Methods Enzymol. 443:65-82). VEGF (2.2 nmol/L) stimulation was used for all in vitro angiogenesis assays. Transwell migration assay was performed as described by Kaplan, et al. ((2011) Free Radical Res. 45:1124-35) using VEGF (4.4 nmol/L), sphingosine-1-phosphate (S1P) (1 μmol/L), or basic fibroblast growth factor (bFGF) (50 ng/mL) in the presence or absence of kinesin-derived angiogenesis inhibitor (DUF2C5; residues 1238-1260 of KIF13B) at varying concentrations.
(§2) To test the bioactivity of the truncated mutant of KIF13B, DUF2C was expressed by lentivirus vector in HUVECs. […] The collagen invasion system (Kang, et al. (2011) J. Biol. Chem. 286:42017-42026) was used as another angiogenesis assay to test the peptides. After infection with control lentivirus, FLAG-DUF2C, or FLAG-DUF2, HUVECs were seeded on collagen gels. Cell invasion in response to proangiogenic stimuli SIP and VEGF in the gel was monitored for up to 24 hours.
Bioactivities in two-dimensional capillary network formation assay were assessed in HUVECs expressing KIF13B truncated mutants or vector controls. HUVECs were infected with lentiviruses encoding FLAG-C2, -C3, -C5, -C8, -C9, or vector.
Changes in VEGF-induced network formation assay were assessed in […] plugs. […] VEGF-induced EC sprouting was also determined by 3-dimensional culture of HUVECs on beads (Nakatsu & Hughes (2008) Methods Enzymol. 443:65-82).

HUVECs [4] = assay: collagen invasion assay; type: cell-based, human; conditions: lentiviral expression; S1P and VEGF; up to 24 hours
Experimental: as §1, §2

[5] = system: vessel formation of mouse ECs; assay: […] plug vessel formation assay in mice with lentivirus; type: in vivo; conditions: lentivirus s.c. with MATRIGEL, VEGF, bFGF, heparin; C57BL mice
Experimental: Hematoxylin and eosin staining of […] plug was supplemented with 4.4 nmol/L VEGF, 50 ng/mL of basic fibroblast growth factor, 60 U of heparin, and 0.8×10^8 IFU lentivirus (vector control, DUF2, or DUF2C5, or CT) and injected s.c. in C57BL6 mice. Data are expressed as means±SEM. N=4, 4, 5, and 5 for vector control, DUF2, DUF2C5, and CT, respectively. *P<0.05 (one-way analysis of variance). CT, residues 1528-1826 of KIF13B.
For the […] plug assay used to assess vessel formation of mouse ECs, C57BL6 males (Jackson Laboratory) were used as previously described (Yang & Proweller (2011) J. Biol. Chem. 286:13741-53). […] supplemented with 4.4 nmol/1 VEGF, 50 ng/ml bFGF, 60 U heparin, and 0.8×10^8 IFU of lentivirus was injected subcutaneously into abdomen. Four days after injection, […] was collected.
To address the role of KIF13B in mediating angiogenesis in vivo, the […] plug assay was performed in mice using lentivirus expressing truncated mutants of KIF13B. High titer of lentivirus was injected with […] s.c. into C57BL mice in the presence of VEGF, bFGF, and heparin.

Chain of VEGFR2 (P35968 20-1356): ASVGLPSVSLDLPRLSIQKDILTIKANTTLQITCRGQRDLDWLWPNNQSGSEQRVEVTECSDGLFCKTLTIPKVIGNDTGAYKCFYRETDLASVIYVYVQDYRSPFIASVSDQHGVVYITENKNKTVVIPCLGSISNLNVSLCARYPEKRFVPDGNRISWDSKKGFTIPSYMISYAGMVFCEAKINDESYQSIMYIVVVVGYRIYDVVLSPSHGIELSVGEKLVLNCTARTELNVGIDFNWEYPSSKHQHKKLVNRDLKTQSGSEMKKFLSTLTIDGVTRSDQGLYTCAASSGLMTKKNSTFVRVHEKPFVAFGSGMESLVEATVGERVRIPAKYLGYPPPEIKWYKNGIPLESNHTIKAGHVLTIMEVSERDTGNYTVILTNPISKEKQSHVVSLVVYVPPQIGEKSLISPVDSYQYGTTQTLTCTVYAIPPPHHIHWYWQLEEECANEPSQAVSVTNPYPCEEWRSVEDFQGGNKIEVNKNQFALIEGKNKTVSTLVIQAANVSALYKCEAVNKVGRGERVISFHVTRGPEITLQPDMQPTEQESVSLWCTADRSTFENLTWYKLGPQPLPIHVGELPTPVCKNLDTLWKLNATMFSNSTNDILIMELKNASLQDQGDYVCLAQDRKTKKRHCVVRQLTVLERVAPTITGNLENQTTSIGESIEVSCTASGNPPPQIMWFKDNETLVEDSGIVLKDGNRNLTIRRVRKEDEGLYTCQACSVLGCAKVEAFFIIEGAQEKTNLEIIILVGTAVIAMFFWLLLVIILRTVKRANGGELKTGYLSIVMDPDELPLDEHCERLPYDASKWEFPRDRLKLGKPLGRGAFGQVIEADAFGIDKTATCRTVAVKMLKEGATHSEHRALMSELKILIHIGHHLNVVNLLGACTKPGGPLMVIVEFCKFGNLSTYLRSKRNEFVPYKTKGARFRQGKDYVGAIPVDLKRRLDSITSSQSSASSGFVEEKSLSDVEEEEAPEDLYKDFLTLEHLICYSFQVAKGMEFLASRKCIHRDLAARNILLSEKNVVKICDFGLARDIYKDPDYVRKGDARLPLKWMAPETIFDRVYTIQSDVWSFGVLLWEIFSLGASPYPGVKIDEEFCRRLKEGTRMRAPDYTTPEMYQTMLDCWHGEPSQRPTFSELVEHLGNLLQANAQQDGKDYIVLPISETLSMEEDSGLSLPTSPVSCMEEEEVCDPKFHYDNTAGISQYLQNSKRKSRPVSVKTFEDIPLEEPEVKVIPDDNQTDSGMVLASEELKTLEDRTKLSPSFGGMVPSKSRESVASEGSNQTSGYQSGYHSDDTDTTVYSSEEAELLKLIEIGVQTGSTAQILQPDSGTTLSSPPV

DUF2B: residues 1168-1216 of KIF13B, recombinant protein (THIPVIFLDLNADDFSSQDNLDDPEAGGWDATLTGEEEEEFFELQIVKQ; left off: small tags and cut ends)
VEGFR2 binding (VEGFR2): failed to bind

CC(C)(N)C(=O)N[C@@H](Cc1c[nH]cn1)C(=O)N[C@H](Cc1ccc2ccccc2c1)C(=O)N[C@H](Cc1ccccc1)C(=O)N[C@@H](CCCCN)C(N)=O [Ipamorelin] (H-[Aib]H[d2Nal][dF]K-NH2)
terminal half-life ([1]; in humans): about 2 hours

CC[N+](CCCS(=O)(=O)[O-])=c1ccc2c(C=CC=C3N(CCCCCC(=O)O)c4ccc(S(=O)(=O)[O-])cc4C3(C)C)cc(C(C)(C)C)oc-2c1.[Na+] [DY633]
delivery into tumor sites (DY633 label in tumor cryosections) [2]: not detected

PQLSRGTPVDERLFLIVR (listed as Homo sapiens) [DUF2C9, KIF13B residues 1235-1252]
VEGF-induced capillary network formation (HUVECs [3]): did not significantly reduce | VEGFR2 binding (VEGFR2): weakly bind VEGFR2 | VEGFR2 binding (VEGFR2; listed as C9): partial or unstable binding

NC(=O)CC[C@@H]1NC(=O)[C@H](Cc2ccccc2)NC(=O)[C@H](Cc2ccc(O)cc2)NC(=O)[C@@H](N)CSSC[C@@H](C(=O)N2CCC[C@H]2C(=O)N[C@@H](CCCN=C(N)N)C(=O)NCC(N)=O)NC(=O)[C@H](CC(N)=O)NC1=O [vasopressin]
half-life ([1]; in humans): 0.167 to 0.583 h

TPVDERLFLIVRVTVQLSHPADMQLVLRKR . . . QGF (listed as Homo sapiens) [DUF2C3, KIF13B residues 1241-1281]
VEGF-induced capillary network formation (HUVECs [3]): significantly reduced | VEGFR2 binding (VEGFR2): bind VEGFR2

TPVDERLFLIVRVTVQ (listed as Homo sapiens) [SEQ ID NO:3, Homo sapiens KAI peptide]
VEGFR2 binding (VEGFR2): sufficient for VEGFR2 binding

DUF2A: residues 1111-1167 of KIF13B, recombinant protein (QKLVSKRDKTEDDADREAQLLEMRLTLTEERNAVMVPSAGSGIPGAPAEWTPVPGME; left off: small tags and cut ends)
VEGFR2 binding (VEGFR2): failed to bind

C2: truncated KIF13B domain, residues 1221-1260, recombinant or lentivirus-expressed (FLAG-C2) (VKAEASWDSAVHGCPQLSRGTPVDERLFLIVRVTVQLSHP; not fully specified (N-terminus); also: FLAG tag; UniProt Q9NQT8 1221-1260, looked up, fragment)
VEGF-induced capillary network formation (HUVECs [3]): significantly reduced | VEGFR2 binding (VEGFR2): bind VEGFR2

peginesatide
elimination half-life ([1]; in healthy volunteers): 18.9 h

VRVTVQLSHPADMQLVLR (listed as Homo sapiens) [DUF2C8, KIF13B residues 1251-1268]
VEGF-induced capillary network formation (HUVECs [3]): did not significantly reduce | VEGFR2 binding (VEGFR2): weakly bind VEGFR2 | VEGFR2 binding (VEGFR2; listed as C8): partial or unstable binding

SRGTPVDERLFLIVRVT (listed as Homo sapiens) [DUF2C6, KIF13B residues 1238-1254]
VEGFR2 binding (VEGFR2): partial or unstable binding

albiglutide
half-life ([1]; in humans): 140 to 170 h

B1: DUF2: second DUF3694 domain, residues 1112-1281 of KIF13B (protein, UniProt Q9NQT8 1112-1281, looked up, fragment)
chain: KLVSKRDKTEDDADREAQLLEMRLTLTEERNAVMVPSAGSGIPGAPAEWTPVPGMETHIPVIFLDLNADDFSSQDNLDDPEAGGWDATLTGEEEEEFFELQIVKQHDGEVKAEASWDSAVHGCPQLSRGTPVDERLFLIVRVTVQLSHPADMQLVLRKRICVNVHGRQGF
distance of invasion (HUVECs [4]): significantly reduced | invasion of HUVECs into collagen gel (HUVECs [4]): significantly reduced | number of lumen formed (HUVECs [4]): significantly reduced | thickness of invading sprouts (HUVECs [4]): not different among the groups | number of vessels in MATRIGEL plug [5]: significantly reduced

B2: CT: C-terminus region of KIF13B (residues 1528 to 1826), negative control (protein, UniProt Q9NQT8 1528-1826, looked up, fragment)
chain: ICDKPAKVPSPPPVIAVTAVTPAPEAQDGPPSPLSEASSGYFSHSVSTATLSDALGPGLDAAAPPGSMPTAPEAEPEAPISHPPPPTAVPAEEPPGPQQLVSPGRERPDLEAPAPGSPFRVRRVRASELRSFSRMLAGDPGCSPGAEGNAPAPGAGGQALASDSEEADEVPEWLREGEFVTVGAHKTGVVRYVGPADFQEGTWVGVELDLPSGKNDGSIGGKQYFRCNPGYGLLVRPSRVRRATGPVRRRSTGLRLGAPEARRSATLSGSATNLASLTAALAKADRSHKNPENRKSWAS
VEGF-induced capillary network formation (HUVECs [3]): formed capillary networks | VEGFR2 binding (VEGFR2): does not bind | number of vessels in MATRIGEL plug [5]: no significant effect

B3: DUF2C: residues 1217-1281 of KIF13B, recombinant protein (protein)
chain: HDGEVKAEASWDSAVHGCPQLSRGTPVDERLFLIVRVTVQLSHPADMQLVLRKRICVNVHGRQGF
modifications: left off: small tags and cut ends
notes: residues 1217-1281 of KIF13B, recombinant protein
distance of invasion (HUVECs [4]): significantly reduced | invasion of HUVECs into collagen gel (HUVECs [4]): significantly reduced | number of lumen formed (HUVECs [4]): significantly reduced | thickness of invading sprouts (HUVECs [4]): not different among the groups | VEGF-induced capillary network formation (HUVECs [3]): sufficient to reduce | VEGFR2 binding (VEGFR2): specifically binds

Reference: patent US11299524B2, “KIF13B-derived peptide and method of inhibiting angiogenesis” (THE BOARD OF TRUSTEES OF THE UNIVERSITY OF ILLINOIS, priority 2016, dated 2022)
